B1: CPEB3 Ribozyme (parent)
chain: UAACAGGGGGCCACAGCAGAAGCGUUCACGUCGCAGCCCCUGUCAGAUUCUGGUGAAUCUGCGAAUUCUGCUGUAUAUCUC

Variants of: B1
Test: self-cleavage, relative activity (ratio to wild type); higher = more cleavage; in vitro, sequencing
Method in brief: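 Relative activity was defined as the cleaved/total read fraction for a variant divided by the same fraction for the unmutated ribozyme. CPEB3 self-cleaving ribozyme libraries were made by rounds of error-prone PCR, barcoded, and transcribed in vitro with T7 RNA polymerase for 5 hours at 37°C, and cleavage ran through transcription plus a 15 min DNase I step before EDTA. Illumina sequencing of template-switched reverse transcripts gave the reads, and DNA sequencing mapped the barcodes. Averages come from three batches, using variants with at least 5 reads.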

Going from A35G G46C to A35G G46A, the self-cleavage falls from 1.12 to 0.96.

First: A35G C50A
Second: A35G C50U
The self-cleavage of the first is lower: 1.1 for the first, 1.35 for the second.

Compared with C34U U58C, A35C U49C is higher in self-cleavage: 0.16 for the first, 0.4 for the second.

First: A35G C62U
Second: A35G C62A
The self-cleavage of the first is lower: 0.34 for the first, 0.52 for the second.

First: A35G C62G
Second: A35C U80C
The self-cleavage of the first is lower: 0.51 for the first, 0.84 for the second.

Compared with A35C U80A, A35C A65G is lower in self-cleavage: 0.89 for the first, 0.34 for the second.

Compared with C34U A75G, C34G U48C is higher in self-cleavage: 0.18 for the first, 0.21 for the second.

C34A U69A and C34A U69C are the same in self-cleavage: 0.07 for the first, 0.07 for the second.

Compared with A35U C40G, A35U C40A is lower in self-cleavage: 0.17 for the first, 0.09 for the second.

First: A35U C40U
Second: C34U C68U
The self-cleavage of the first is higher: 0.37 for the first, 0.3 for the second.

Compared with A35U C39U, A35U C39A is lower in self-cleavage: 0.49 for the first, 0.27 for the second.

First: A35G G61A
Second: A35G G61U
The self-cleavage of the first is lower: 1.11 for the first, 1.23 for the second.

First: C34G C59G
Second: C34G C59A
The self-cleavage of the first is lower: 0.14 for the first, 0.18 for the second.

Compared with C34U G46A, C34U U60A is higher in self-cleavage: 0.07 for the first, 0.14 for the second.

Compared with C34U U60C, C34G A35G is higher in self-cleavage: 0.11 for the first, 0.86 for the second.

First: C34U
Second: C34G
The self-cleavage of the first is higher: 0.35 for the first, 0.33 for the second.

Going from A35G C79U to A35G C79A, the self-cleavage falls from 1.51 to 1.3.

First: A35G U69G
Second: A35G U69A
The self-cleavage of the first is higher: 1.33 for the first, 1.22 for the second.

Compared with A35G U69C, C34G A45C is lower in self-cleavage: 1.2 for the first, 0.19 for the second.

First: A35C A77U
Second: C34A U41G
The self-cleavage of the first is higher: 1.07 for the first, 0.39 for the second.

Going from A35G A64G to A35G A64U, the self-cleavage falls from 1.28 to 1.12.

First: A35G A64C
Second: A35C U41G
The self-cleavage of the first is higher: 0.98 for the first, 0.2 for the second.

Going from A35C U41C to A35C U41A, the self-cleavage falls from 0.72 to 0.47.

Going from C34A G46U to A35U A57G, the self-cleavage rises from 0.15 to 0.47.

First: A35U A57U
Second: A35U A57C
The self-cleavage of the first is lower: 0.2 for the first, 0.31 for the second.

First: A35C U43C
Second: A35C U43A
The self-cleavage of the first is lower: 0.35 for the first, 1.06 for the second.

First: A35G G36C
Second: A35G G36U
The self-cleavage of the first is lower: 0.29 for the first, 0.5 for the second.

Compared with A35G G36A, A35G G73A is higher in self-cleavage: 0.92 for the first, 1.46 for the second.

Compared with A35G A56C, A35G A56U is lower in self-cleavage: 1.27 for the first, 1.24 for the second.

Going from A35G A56G to C34U U74A, the self-cleavage falls from 1.27 to 0.52.

Compared with C34U U74C, C34U G36U is lower in self-cleavage: 0.84 for the first, 0.14 for the second.

Going from A35C U54C to C34U U76C, the self-cleavage falls from 0.8 to 0.35.

Compared with C34U U76A, A35G U51C is higher in self-cleavage: 0.5 for the first, 1.27 for the second.

Compared with A35G U51G, A35G U51A is higher in self-cleavage: 1.28 for the first, 1.32 for the second.

Going from A35C G61A to A35G A77U, the self-cleavage rises from 0.41 to 1.28.

Compared with A35G A77C, A35G A77G is higher in self-cleavage: 1.27 for the first, 1.39 for the second.

Compared with A35G C59U, C34G A56G is lower in self-cleavage: 1.2 for the first, 0.18 for the second.

First: C34A U74G
Second: A35G G52C
The self-cleavage of the first is lower: 0.29 for the first, 1.27 for the second.

A35G G52A and A35G G52U are the same in self-cleavage: 1.36 for the first, 1.36 for the second.

Compared with A35C A47G, A35C A47U is lower in self-cleavage: 0.81 for the first, 0.63 for the second.

Going from C34U C71A to A35G U58G, the self-cleavage rises from 0.13 to 1.09.

Compared with A35G U58C, A35G U58A is lower in self-cleavage: 1.23 for the first, 1.07 for the second.

Source: the RNAGym collection of RNA variant scans (doi:10.1093/nar/gkz1192)
